This experiment addresses prefusion SARS-CoV-2 Omicron BA.1 S ectodomain trimer (SARS-CoV-2 Omicron BA.1). In words: cryo-EM structure.

This passage reports stoichiometry N results from article PMC12945441.

“prefusion SARS-CoV-2 Omicron BA.1 S ectodomain trimer (domain or fragment)”: the stoichiometry N amounted to 3.

The stoichiometry N is a count of units in the complex or per binding partner.
